biological target: IMP-1 (IGF2BP1) (Homo sapiens) (UniProt Q9NZI8); experiment: pulldown; conditions: RIP-microarray, A549 cells
Sequence (Q9NZI8 whole entry): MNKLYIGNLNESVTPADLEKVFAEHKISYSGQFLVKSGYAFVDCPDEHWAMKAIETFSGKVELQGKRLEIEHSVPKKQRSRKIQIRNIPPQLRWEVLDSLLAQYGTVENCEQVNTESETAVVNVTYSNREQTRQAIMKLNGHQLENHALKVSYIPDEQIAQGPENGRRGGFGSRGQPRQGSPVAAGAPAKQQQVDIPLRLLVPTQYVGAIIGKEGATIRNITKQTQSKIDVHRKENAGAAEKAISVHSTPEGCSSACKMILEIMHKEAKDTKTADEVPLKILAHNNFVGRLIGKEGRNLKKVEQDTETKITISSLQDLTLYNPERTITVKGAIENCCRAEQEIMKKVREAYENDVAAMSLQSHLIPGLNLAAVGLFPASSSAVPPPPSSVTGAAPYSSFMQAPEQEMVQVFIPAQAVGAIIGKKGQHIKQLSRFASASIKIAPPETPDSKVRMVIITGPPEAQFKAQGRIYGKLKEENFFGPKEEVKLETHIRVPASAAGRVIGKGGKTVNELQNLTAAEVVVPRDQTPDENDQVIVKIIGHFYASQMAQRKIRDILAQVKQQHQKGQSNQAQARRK

Row | Substance | binding signal (fold IP/total RNA)
1 | RNF20 mRNA | 2.01
2 | AMIGO2 mRNA | 5.65
3 | L3MBTL3 mRNA | 3.19
4 | CRYAA mRNA | 9.77
5 | YTHDF1 mRNA | 7.99
6 | PTP4A1 mRNA | 3
7 | SYNGR3 mRNA | 12.3
8 | CPSF6 mRNA | 2.24
9 | MGC27277 mRNA | 3.43
10 | SYNJ2 mRNA | 2.56
11 | LASP1 mRNA | 2.66
12 | LPGAT1 mRNA | 3.14
13 | HMBS mRNA | 2.48
14 | C17orf39 mRNA | 2.57
15 | RAN mRNA | 81.9
16 | UBE2S mRNA | 6.78
17 | PDF mRNA | 4.18
18 | C20orf142 mRNA | 3.21
19 | DDX1 mRNA | 34.2

same assay, conditions: RNA immunoprecipitation (FLAG then HA) and cDNA microarray, A549 cells

Row | Substance | binding signal (fold IP/total RNA)
20 | SMAD3 mRNA | 720
